Assay: yeast display, Sf9 membrane polyspecificity reagent, FACS + sequencing; frameworks hold sequencing errors
Outline: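 Nanobodies from a synthetic yeast display library (Saccharomyces cerevisiae BJ5465), induced 36–48 hours with galactose, were stained 1 hour at 4 °C with 10% biotinylated, detergent-solubilized Sf9 membrane reagent, enriched on streptavidin microbeads, then FACS-sorted. Anti-HA (expression) and streptavidin (reagent binding) fluorescence set low and high (top ~1%) gates. Polyreactivity labels come from the gate of origin. Genes were colony-PCR amplified, MiSeq 2 × 250 sequenced and filtered by CDR length.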

Row | Sequence | polyreactivity (PSR sort gate)
1 | QVQLVESGGGLVQAGGSLRLSCAASGLIFYFYAMGWYRQAPGKERELVAAISSRGGRTYYADSVKGRFTISRDNAKNTVYLQMNSLKPEDTAVYYCNVDQLLRRTSAQGDYWGQGTQVTVSS | high polyreactivity
2 | QVQLVESGGGLVQAGGSLRLSCAASGLIFYGNAMGWYRKAPGKERELVAAISWSGGNTSYADSVKGRFTISRDNAKNTVYVLMNSLKAEDTAVDYCNADSLPSLERYGYWGQGTQVTVSS | low polyreactivity
3 | QVQLVESGGGLVQAGGSLRLSCAASGLIFYIYAMGRYREAPGKERELVAAISSSGGSTFYADSVKGRFTISRDNAKNTVYLQMNSLKPEDTAVYYCAAYYGGGYGFHRDYWGQGTQVTVSS | high polyreactivity
4 | QVQLVESGGGLVQAGGSLRLSCAASGLIFYIYMGWYRQAPGKESELVAVISSSGNSTYYADSVKGRFTISRYNAKNTVYLQLNSLKPEDTAVYYCNASAYYPPSSSRYYYWGQGTQVTVSS | low polyreactivity
5 | QVQLVESGGGLVQAGGSLRLSCAASGLIFYKYAMGWYRPAPGKERELVAAISSSGGSTYYADSVKGRFTISRDNAKNTVYLQMNSLKPEDTAVYYCAARTNRRGYNYWGQGTQVTVSS | high polyreactivity
6 | QVQLVESGGGLVQAGGSLRLSCAASGLIFYKYAMGWYRQAPGKERELVAAITSGGSTNYADSVKGRFTISRDNAKNTVYLQMNSLKPEDTAVYYCNADYNLYLVVRWWYPPVDYWGQGTQVTVSS | low polyreactivity
7 | QVQLVESGGGLVQAGGSLRLSCAASGLIFYLYAMGWYRQAPGKERELVAAITSGGGSTYYADSVKGRFTHSRDHAKNTVYLQMNSLKPEDTGVYYCAARLVLYITVVYEDDYWGQGTQVTVSS | low polyreactivity
8 | QVQLVESGGGLVQAGGSLRLSCAASGLIFYPNGMGWYRQAPGKERELVAAITYSDGSTYYADSVKGRCTISRDNAKNTVYLQMNSLKPEDTAVYYCTARWGYRRGYWGQGTQVTVSS | high polyreactivity
9 | QVQLVESGGGLVQAGGSLRLSCAASGLIFYRNAMGWYRQAPGKERELVAAIRFSTGSTYYADSVKGRFTISRDNAKKTVYLQMNSLKPEDTAVYYCAADRRYYWYNYWGQGTQVTVSS | high polyreactivity
10 | QVQLVESGGGLVQAGGSLRLSCAASGLIFYTYAMGWYRQAPGKERELVAGISRSGTSTRYADSVKGRFTISRDNAKNTVYLQMNSLKPEDTAVYYCNAVGRSKHGYSRSYYWGQGTQVTVSS | high polyreactivity
11 | QVQLVESGGGLVQAGGSLRLSCAASGLIFYTYAMGWYRQAPGKERELVATISGRGGSTYYADSVKGRFTISRDNAKNTVYLQMNSLKPEDTAVYYCNVVPSTYYQYDYWGQGTQVTVSS | high polyreactivity
12 | QVQLVESGGGLVQAGGSLRLSCAASGLIFYYYALAWYRQAPGKERELVAAITWTAGSTSYADSVKGRFTISRDNAKNTVYLQMNRLKPEDTAVYYCAADYRHDTFSNEYDYWGQGTQVTVSS | low polyreactivity
13 | QVQLVESGGGLVQAGGSLRLSCAASGLIIPKYAMGWYRQAPGKEREFVAAISGRGGTTYYADSVKGRFTISRDNAKNTVYLQMYSLKPEDTAVYYCAAGGPWANIYGNGYWGQGTQVTVSS | high polyreactivity
14 | QVQLVESGGGLVQAGGSLRLSCAASGLILDGYAMGWYRQAPGKERELVAAITRSGGRTYYADSVKGRFTISRDNAKNTVYLQMNSLKPEDTAVYYCAALGWSGRYSYDYWGQGTQVTVSS | high polyreactivity
15 | QVQLVESGGGLVQAGGSLRLSCAASGLILKYYAMGWYRQAPGKEREFVAAISSSGTRTYADSVKGRFTISRDNAKNTVYLQMNSLKPEDTAVYYCAKDYRVWVAATIAHDYWGQGTQVTVSS | low polyreactivity
16 | QVQLVESGGGLVQAGGSLRLSCAASGLILNYYTMGWYRQAPGKERELVATISSSTGSTYYADSVKGRFTISRDNAKNTVYLQMNSLKPEDTAVYYCASDHWSYWQIYDYWGQGTQVTVSS | low polyreactivity
17 | QVQLVESGGGLVQAGGSLRLSCAASGLILQYYVMGWYIQAPGKERELVAAITRSGGGTYYADSVKGRFTISRDNAKNTVYLQMNSLKPEDSAVYYCAAQRQYGKFDYWGQGTQVTVSS | high polyreactivity
18 | QVQLVESGGGLVQAGGSLRLSCAASGLILYTYAMGWYRQAPGKERELVAAINSGGRTYYADSVKGRFTISRDNAKNTVYLQMNSLKPEDTAVYYCAADYGSRVRGFNYWGQGTQVTVSS | low polyreactivity
19 | QVQLVESGGGLVQAGGSLRLSCAASGLILYWYAMGWYRQAPGKERELVAVITRSGRTNYADSVKGRFTSSRDNAKNTVYLQMNSLKPEDTAVYYCAADYYTSFYSWPPYDYWGQGTQVTVSS | low polyreactivity
20 | QVQLVESGGGLVQAGGSLRLSCAASGLISTYYVMGWYRQAPGQERELVAAIRASDASTYYADSVKGRFTISRDNAKNPVYLQMHSLKPEDTAVYYCAAETGFYSRFAFHRYNYWGQGTQVTVSS | low polyreactivity
21 | QVQLVESGGGLVQAGGSLRLSCAASGLIYSAYAMGWYRQAPGKEREFVAAISRSGGITFYADSVKGRFTISRDNAKNTVYLQMNSLKPEDTAVYYCAARRSKYRRGGGYYWGQGTQVTVSS | high polyreactivity
22 | QVQLVESGGGLVQAGGSLRLSCAASGLKFAHYAMGWYRQAPGKERELVAAISRSGGRTRYADSVKGRFTISRDQAKNTVYLQMNSLKAEDTAVYYCAAVGSVNYDADFDYWGQGTQVTVSS | high polyreactivity

Row | Sequence | polyreactivity (PSR sort gate)
23 | QVQLVESGGGLVQAGGSLRLSCAASGLNFRQYAMGWYRKAPGKERELVAAITVTGGTTYYADSVKGRFTISRDNAKNTVYLQMNSLKPEDTAVYYCATRANYVGWTQFGHGYDYWGQGTQVTVSS | low polyreactivity
24 | QVQLVESGGGLVQAGGSLRLSCAASGLNFYYYAMGWYRQAPGKESELVAAISGGGSTYYADSVKGRFTISRDNAKNTVYLQMNSLKPEDTAVYYCAASYWYPSWLYDYWGQGTQVTVSS | low polyreactivity
25 | QVQLVESGGGLVQAGGSLRLSCAASGLNLKRYAMGCYTQAPGKERELVAAISKSGGSTYYADSVKGRFTISRDNAKNTVYLQMNSLKPEDTAVYYCAADSYNLWDDYWGQGTQVTVSS | low polyreactivity
26 | QVQLVESGGGLVQAGGSLRLSCAASGLPFQEYAMGWYRQAPGKEREFVAAISASGGSTYYADSVKGRFTISRDNAKNTVYLQMNSLKPEDTAVYYCNKYGTVGYGSYGYWGQGTQVTVSS | high polyreactivity
27 | QVQLVESGGGLVQAGGSLRLSCAASGLSFQSYAMGWYRQAPGKERELVAAISRRSGSTYYADSVKGRFTISRDNAKNTVYLQMNSLKPEDTAVYYCTTRRGERGYWGQGTQVTVSS | high polyreactivity
28 | QVQLVESGGGLVQAGGSLRLSCAASGLSFYPNGMGWYREAPGKERELVAAITYSDGSTYYADSVKGRFSISRDNAKNTVYLQMNSLKPEDTAVYYGNRVTRWTYNYWGQGTQVTVSS | high polyreactivity
29 | QVQLVESGGGLVQAGGSLRLSCAASGLTFADYAMGWYRQAPVKERELVAAISSSDTSTYYADSVKGRFTISRDNAKNTVYLQMNSLKPEDTAVYYCAADEGYVWPYYGWGFGKYDYWGQGTQVTVSS | low polyreactivity
30 | QVQLVESGGGLVQAGGSLRLSCAASGLTFAGYAMGWYRQAPGKERELVAAITSGGSTYYADSVKGRFTISRDNAKNTVYLQMNSLKPEDTAVYYCAARRVRKALVGYGYWGQGTQVTVSS | high polyreactivity
31 | QVQLVESGGGLVQAGGSLRLSCAASGLTFANYAIGWYRQAPGKERELVAAISTWSGGSTYYADSVKGRFTISRDNAKNTVYLQMNSLKPEDTAVYYCAARRYSRGRLPYDYWGQGTQVTVSS | high polyreactivity
32 | QVQLVESGGGLVQAGGSLRLSCAASGLTFANYAMGWYRQAPGKERELVAAISTWSGGSTYYADSVKGRFTISRDHAKNTVYLQMNSLKPEDTAVYYCNTDRYWGKGDYWGQGTQVTVSS | high polyreactivity
33 | QVQLVESGGGLVQAGGSLRLSCAASGLTFAPYVMGWYRQAPGKERELVPAISRSGGSTYYADSVKGRFTISRDNAKNTVYLQMNSLKPEDTAVYYCNRDVSLSAFDYWGQGTQVTVSS | high polyreactivity
34 | QVQLVESGGGLVQAGGSLRLSCAASGLTFARNAMGWYRQAPGKERELVAAISSGGSTYYADSVKGRFTISRDNAKNPVYLQMNSLKPEDTAVYYCAARPIPRYYGKFWRVDYWGQGTQVTVSS | high polyreactivity
35 | QVQLVESGGGLVQAGGSLRLSCAASGLTFASNALGWYRQAPWKERELVAGISRTGTTTYYADSVKGRFTISRDNAKNTVYLQMNSLKPEDTAVYYCAASKQAVKYRSQRYYYWGQGTQVTVSS | high polyreactivity
36 | QVQLVESGGGLVQAGGSLRLSCAASGLTFASYAMGWYRQAPGKERDLVARISRSGGSTYYADSVKGRFTISRDNAKNTVYLQMNSLKPEDTAVYYCAADYIFRRYPVGGIYDYDYWGQGTQVTVSS | high polyreactivity
37 | QVQLVESGGGLVQAGGSLRLSCAASGLTFASYAMGWYRQSPGKERELVARISRSGGSTYYADSVKGRFTISRDNAKNTVYLQMNSLKPEDTAVYYCAARNSYGNWRYYYWGQGTQVTVSS | high polyreactivity
38 | QVQLVESGGGLVQAGGSLRLSCAASGLTFAYNGLGWYRQAPGKEGELVAEISASGASTYYADSVKGRFTISRDNAKNTVYLQMNSLKPEDTAVYYCAAPAPYDGHYSIYSWAYTDDYWGQGTQVTVSS | low polyreactivity
39 | QVQLVESGGGLVQAGGSLRLSCAASGLTFAYYAMGWYRQAPGKERELVAAISYSGGSTYYADSVKGRFTISRDNANKTVYLQMNSLKPEDTAVYYCNRDRNSGFYRRYGYWGQGTQVTVSS | high polyreactivity
40 | QVQLVESGGGLVQAGGSLRLSCAASGLTFAYYAMGWYRQAPGKETELVAAISWNGARTYYADSVKGRFTISRDNSKNTVYLQMNSLKPEDTAVYYCAAVRSASSWQYIWLKYYYWGQGTQVTVSS | high polyreactivity
41 | QVQLVESGGGLVQAGGSLRLSCAASGLTFAYYDMGWYIQAPGKEREMVAAITSGGTTNYADSVKGSFTISRDNANNTVYFQMNSLKPEDTAVYYCNADYYSRIVGVRIYEYWGQGTQVTVSS | low polyreactivity
42 | QVQLVESGGGLVQAGGSLRLSCAASGLTFDGNAMGWYRQAPGKERELVAAITSSGGNTYYADSVKGRFTISRDNAKNTVYLQMNSLKPEDTAVYYCAAGGYRWSARTWSWVRYDYWGQGTQVTVSS | high polyreactivity
43 | QVQLVESGGGLVQAGGSLRLSCAASGLTFDHNVMGWYRQAPGKERELVAAISRSGSSTYYADSVKGRFTISRDNAKNTVYLQMNSLKPEDTAVYYCAASDKRIYNLLRRYYYWGQGTQVTVSS | high polyreactivity
